# Data from article PMC2680067 (European journal of human genetics : EJHG, 2008).
# Molecular target: the molecule itself
# Assay: cross-linking
protein,measurement,value
"myc-EGFP-Trim50 (full-length mouse Trim50), expressed in U2OS cells (natural protein) MAWRLTVPELQDQLQCPICLEVFKEPLMLQCGHSYCKDCLDNLSQHLDSELCCPVCRQSVDCSSSPPNVSLARVIDALRLPGDIEPTVCVHHRNPLSLFCEKDQEFICGLCGLLGSHQHHRVTPVSTVYSRMKEELAGRISELKEEHRNVEEHIGKLVNNRTRIINESDVFSWVIRREFQELHHLVDEEKARCLEGLEGHTRGLVASLDMQLEQAQGTQERLAQAEQVLEQFGNESHHEFIRFHSVASRAEVQQARPLEGVFSPISFKPALHQADIKLTVWKRLFRKVLPAPASLKLDPATAHPLLELSKGNTVVHCGLLAQRRASQPERFDYSTCVLASKGFSWGRHYWEVVVGSKSDWRLGVIKGTASRKGKLNKSPEHGVWLIGLKEGRVYEAFGCPRLPLPVAGHPHRIGVYLHYEQGELTFFDADRPDDLRTLYTFQADFQGKLYPILDTCWHERGSNSLPMVLPPPSGPGHFTLGQV",stoichiometry N,3
